Laboratory results reported in patent US6998239.

Molecular target: T1, human CCX CKR with N-terminal Flag epitope, stably expressed on HEK293 cells, Q9NPB9
T1 chain: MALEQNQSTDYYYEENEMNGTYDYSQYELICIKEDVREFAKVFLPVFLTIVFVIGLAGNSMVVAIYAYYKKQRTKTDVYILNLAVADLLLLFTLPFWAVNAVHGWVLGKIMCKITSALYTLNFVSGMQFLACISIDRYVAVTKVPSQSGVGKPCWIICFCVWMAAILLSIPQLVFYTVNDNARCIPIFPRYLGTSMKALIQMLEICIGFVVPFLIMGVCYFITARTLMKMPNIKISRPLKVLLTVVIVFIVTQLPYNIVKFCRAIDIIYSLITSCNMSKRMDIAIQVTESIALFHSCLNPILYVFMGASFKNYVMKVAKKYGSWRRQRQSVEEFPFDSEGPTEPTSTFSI
Test: 125I-ELC competition binding
Conditions: ligand; chains chain; remark: other sources report otherwise

IC50: 0.14 µM
B1: BLC (B-lymphocyte chemoattractant), O43927 23-109 (protein)
chain: VLEVYYTSLRCRCVQESSVFIPRRFIDRIQILPRGNGCPRKEIIVWKKNKSIVCVDPQAEWIQRMMEVLRKRSSSTLPVPVFKRKIP
